Data set [1] deals with MS2 coat protein. The data set is described as follows: apparent KD of MS2 coat protein; designed switch direction (-1 OFF switch, 1 ON switch): -1; higher = weaker reporter binding. The settings on record: Eterna round: R98. The protocol:
(§1)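 RNA-MaP: designed FMN/MS2 RNA switches (84 nt design region) are transcribed on-chip within common flanks and titrated with SNAP-549-labelled MS2 coat protein (about 1-3000 nM) in 100 mM Tris pH 7.5, 80 mM KCl, 4 mM MgCl2, without or with 200 uM FMN. Median apparent KD per design; activation ratio = KD,OFF / KD,ON.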

For data set [2], the system named is MS2 coat protein. The data set is described as follows: apparent KD of MS2 coat protein; higher = weaker reporter binding. The settings on record: Eterna round: R101. The procedure: as §1

Consider “AAAGUCGAGAAGAUAAUAAUGAAUACAUGAGGAUCACCCAUGUAGGAUAUGCAGUGGAAUACACUGCAGAAGGACAUACUCGAC [Exclusion NG 3/16-B1]”, for which the figures for the “apparent KD of MS2 coat protein” value in data set [1] (input ligand: FMN 200 uM) and in data set [1] (input ligand: none) were 16.4 nM and 13.6 nM, respectively.
The matching figures for “AAUUAAUUAAUUAAUUGGACUGAUACAUGAGGAUCACCCAUGUAGGAUAUGCAGUGGAAUACACUGCAGAAGGACAUACAGUCC [Exclusion NG 3/1-B2]”: 18.3 nM and 14.5 nM.
With “AGACCUGCUCAGAAGGUGGGAACGAGGCUGGAAACAGCCUCGAAAUUAAAUCCUUGAGGAUCACCCAAGGAUAUGAGCAGGUCA [#SharedSequence - IExNG2: 12] (puzzle (switch architecture): Inverted Exclusion NG 2)”, the “apparent KD of MS2 coat protein” value in data set [2] (input ligand: FMN 200 uM) is 84.3 nM; in data set [2] (input ligand: none), 10.3 nM.
As to “AGAGCUGCUCAGAAGGAGGAUCACCCUUUCGAAAGAAAUACGGAGGCUGAAAAGCCUCCGAAAUCUUAGGAUAUGAGCAGCUCA [#SharedSequence - IExNG2: 6] (puzzle (switch architecture): Inverted Exclusion NG 2)”, the “apparent KD of MS2 coat protein” value in data set [2] (input ligand: FMN 200 uM) amounted to 166 nM; in data set [2] (input ligand: none), 153 nM.
As for “AGGUGGGUGCUGCAGUGAUAUACAUGAGGAUCACCCAUGUCCGAGGAUAUGCGGCAAACACGCCAGCAGAAGGCGGAGAAAAUG [Soorisrila]”, the “apparent KD of MS2 coat protein” value in data set [1] (input ligand: FMN 200 uM) was determined as 154 nM; in data set [1] (input ligand: none), 125 nM.
The matching figures for “AGUACUCCAGAAGGAUAUGCGUCGGUGGAUGUCCUUAGGCGGACGGUCACAUGAGGAUCACCCAUGUAGAAGGUCUGGGAGCCA [Leesla]”: 87.3 nM and 19.2 nM.
For “AUGGUUGUCGUAGGAUAUGUAGGAUAUUCCUACAUGAGGAUCACCCAUGUUCGCAUGGAAGAAGGACAGAAGGACGAUGACCAA [salish99_SSNG2_008 #endbits investigation] (puzzle (switch architecture): Same State NG 2)”, the “apparent KD of MS2 coat protein” value in data set [2] (input ligand: FMN 200 uM) was determined as 9.65 nM; in data set [2] (input ligand: none), 840 nM.
The matching figures for “CAAUUGGCACAGAAGGGUGACAUGAGGAUCACCCAUGUAGCGUGGCUCUCAGGAGGAGCCACGCCACAGGAUAUGUGCCGGCAC [Anrilaage] (puzzle (switch architecture): Inverted Same State NG 2)”: 102 nM and 177 nM.
With “CACGACAGGAAACGGAGCGGCCAACAUGAGGAUCACCCAUGUGAGGAUAUGCCUACUAAAAGUAGGCAGAAGGCACAGAAGGCA [Ex NG2 #73]”, the “apparent KD of MS2 coat protein” value in data set [1] (input ligand: FMN 200 uM) turned out to be 136 nM; in data set [1] (input ligand: none) it was 58.1 nM.
For the sequence “CUCCCUCCCUCCCUCCCUCCCUCCGAGGAUAUCCCAAACUCCCUCCCUCCCUCCCUCCCAAAUUCCCAGAAGGCCCUUUUUCCC [2nd design] (puzzle (switch architecture): Small Loop Same State NG 3)”, the figures for the “apparent KD of MS2 coat protein” value in data set [2] (input ligand: FMN 200 uM) and in data set [2] (input ligand: none) were 4.61 nM and 46.4 nM, respectively.
The matching figures for “CUUACUUUGUAGAAGGGUGACAUGAGGAUCACCCAUGUGCGUCUCCUGAAAGACCAGGGUACGCCACAGGAUAUACAAAGUAAG [Tigeatdi] (puzzle (switch architecture): Inverted Same State NG 2)”: 59.8 nM and 116 nM.
For “GCACUGGAUGUAGGAUAUCAGGACGAUAAGUCCUGAGAAGGACAUGAGGAUCACCCAUGUAAAUACUCCCAGUGCAAUAAUAUA [Denovo Exng1 21]”, the “apparent KD of MS2 coat protein” value in data set [1] (input ligand: FMN 200 uM) was found to be 16.6 nM; in data set [1] (input ligand: none), 12.6 nM.
Take “GCAGCUAAUGCAGGAUAUCAGCACGUGUAGUGCUGAGAAGGGCACAUGAGGAUUCUGUCUGUGAUCAAUUAAUAUUAAUGCUGC [salish99#hingeEx3_55-58_006] (puzzle (switch architecture): Exclusion NG 1)”: the “apparent KD of MS2 coat protein” value in data set [2] (input ligand: FMN 200 uM) is 11.5 nM; in data set [2] (input ligand: none), 30.4 nM.
With “GCGUAAAAGAUCCUAUUUAUCUACAUGAGGAUCACCCAUGUGCAGGAUAUGCUAUAUUUAAUAAAGCAGAAGGGCAAUAACCGC [JR_ExcNG3_Sub009]”, the “apparent KD of MS2 coat protein” value in data set [1] (input ligand: FMN 200 uM) was 281 nM; in data set [1] (input ligand: none) it was 67.6 nM.
The matching figures for “GCUGCAAAGUAAGGAUAUGCCUAGGAAACCUAGGCAGAAGGUACAUGAGGAUCACCCAUGUUAACUGAAACAGAAUAAAGCAGC [Thrunch 6 - Jieux - Exclusion NG 1]”: 23.2 nM and 13.5 nM.
Turning to “GGUCGACCUCAAGGAUAUGGACUGCAAAGCAGUCCAGAAGGUGAGGAUCACCCACCUACGGUCAGGAAACUGACCGAUCGACCA [#SharedSequence - ExNG1-2] (puzzle (switch architecture): Exclusion NG 1)”, the “apparent KD of MS2 coat protein” value in data set [2] (input ligand: FMN 200 uM) is 117 nM; in data set [2] (input ligand: none), 19.8 nM.
Consider “GGUUAUAUAACAUGAGGAUCACCCAUGUGAGUGGUCCGAAGCUAGGAUAUCCACACGAGAAGUGUGGAGAAGGAGCAUUCAUUA [AK-NGROCr2-ExNG3-7]”, for which the “apparent KD of MS2 coat protein” value in data set [1] (input ligand: FMN 200 uM) came out at 159 nM; in data set [1] (input ligand: none), 273 nM.
Consider “GUAGCUAUCGGAGGAUAUUCAUACCGGAAACGGACAUGAGGAUCACCCAUGUGGCGAAAGCCAUGGGAGAAGGCCGAUAGCUAC [jl-sng2-3.01 #MUTATE_MAP] (puzzle (switch architecture): Same State NG 2)”, for which the “apparent KD of MS2 coat protein” value came out at 52.2 nM in data set [2] (input ligand: FMN 200 uM) and 856 nM in data set [2] (input ligand: none).
The matching figures for “UAAAUAGAUCCUAGAGGAUCACCCUAGGAUAUCACCGUCGAGGUGCCAUAAUGGCACCUCGACGGUGAGAAGGAGGGAAAUAAA [#SharedSequence - SLExNG3: 2] (puzzle (switch architecture): Small Loop Exclusion NG 3)”: 77.8 nM and 51.2 nM.
Turning to “UCUUAAAUGAUCCUAUUUACCAACAUGAGGAUCACCCAUGUGCAGGAUAUGCUAAAGAUAGAUAAGCAGAAGGGCAUUAACCGC [JR_ExcNG3_Sub006]”, the entries for the “apparent KD of MS2 coat protein” value in data set [1] (input ligand: FMN 200 uM) and in data set [1] (input ligand: none) were 244 nM and 165 nM, respectively.
As for “UGUGUUAUCGGAGGAUAUCGAUAUCAAACAUGAGGAUCACCCAUGUUGAGGAUCACCCAUGUCCACGAGAAGGCCGGCGUACUG [My 7th design] (puzzle (switch architecture): Same State NG 2)”, the “apparent KD of MS2 coat protein” value in data set [2] (input ligand: FMN 200 uM) was 12.5 nM; in data set [2] (input ligand: none), 12.9 nM.
“UUGCAUUGAUGAGGAUAUGGACAUGAGGAUCACCCAUGUUGGGCGGGUAUGAUUUCCGAGGGAGGCUAGAAGGCGUAUUAUGUU [Exclusion NG 2]”: the entries for the “apparent KD of MS2 coat protein” value in data set [1] (input ligand: FMN 200 uM) and in data set [1] (input ligand: none) were 60.8 nM and 45.5 nM, respectively.

Values taken from the supplement of paper PMC9170038.
